Laboratory results as given in paper PMC4509788 (Molecular cell, 2010).

T1: GST-MAGE-G1 (human, UniProt Q96MG7 1-304)
T1 sequence (looked up): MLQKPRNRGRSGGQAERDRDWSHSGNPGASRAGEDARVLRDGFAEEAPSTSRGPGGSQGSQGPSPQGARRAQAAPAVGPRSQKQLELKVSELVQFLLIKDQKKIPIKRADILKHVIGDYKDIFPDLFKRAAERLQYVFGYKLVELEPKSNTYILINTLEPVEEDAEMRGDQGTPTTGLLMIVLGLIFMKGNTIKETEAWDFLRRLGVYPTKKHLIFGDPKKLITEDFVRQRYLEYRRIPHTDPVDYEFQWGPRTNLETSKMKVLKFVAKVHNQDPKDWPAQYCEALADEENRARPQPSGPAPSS

T2: MAGE-G1 (full length, coexpressed with NSE1) (human, UniProt Q96MG7 1-304)
T2 sequence (looked up): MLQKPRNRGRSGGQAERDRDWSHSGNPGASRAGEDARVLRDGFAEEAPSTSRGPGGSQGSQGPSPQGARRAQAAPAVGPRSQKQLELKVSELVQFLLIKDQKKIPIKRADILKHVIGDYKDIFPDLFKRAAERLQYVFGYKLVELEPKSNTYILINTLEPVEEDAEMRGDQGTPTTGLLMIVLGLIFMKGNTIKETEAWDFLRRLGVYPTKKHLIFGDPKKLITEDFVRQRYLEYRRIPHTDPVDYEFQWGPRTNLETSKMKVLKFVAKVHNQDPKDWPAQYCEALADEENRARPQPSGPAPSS


Key:
[1] = biological target: T1, GST-MAGE-G1; test: pull-down
[2] = biological target: T2, MAGE-G1 (full length, coexpressed with …); test: co-purification after coexpression in bacteria

binding result [1] | binding result [2] | Binder
binds |  | NSE1 (purified recombinant) (natural protein, UniProt Q8WV22 1-266, looked up) MQGSTRRMGVMTDVHRRFLQLLMTHGVLEEWDVKRLQTHCYKVHDRNATVDKLEDFINNINSVLESLYIEIKRGVTEDDGRPIYALVNLATTSISKMATDFAENELDLFRKALELIIDSETGFASSTNILNLVDQLKGKKMRKKEAEQVLQKFVQNKWLIEKEGEFTLHGRAILEMEQYIRETYPDAVKICNICHSLLIQGQSCETCGIRMHLPCVAKYFQSNAEPRCPHCNDYWPHEIPKVFDPEKERESGVLKSNKKSLRSRQH
 | binds | NSE1 (full length, coexpressed with MAGE-G1) (natural protein, UniProt Q8WV22 1-266, looked up) MQGSTRRMGVMTDVHRRFLQLLMTHGVLEEWDVKRLQTHCYKVHDRNATVDKLEDFINNINSVLESLYIEIKRGVTEDDGRPIYALVNLATTSISKMATDFAENELDLFRKALELIIDSETGFASSTNILNLVDQLKGKKMRKKEAEQVLQKFVQNKWLIEKEGEFTLHGRAILEMEQYIRETYPDAVKICNICHSLLIQGQSCETCGIRMHLPCVAKYFQSNAEPRCPHCNDYWPHEIPKVFDPEKERESGVLKSNKKSLRSRQH
